Data as given in the supplement of paper PMC10065799, “High-throughput profiling of sequence recognition by tyrosine kinases and SH2 domains using bacterial peptide display” (eLife, 2023).

Assays:
[1] = test system: AncSZ; assay: phosphorylation enrichment, bacterial display (enrichment ratio); higher = better substrate or ligand; peptides without Tyr show the background
[2] = target: EPHB1 (UniProt P54762); assay: as above
[3] = target: EPHB2 (UniProt P29323); assay: as above
[4] = target: FGFR1 (UniProt P11362); assay: as above
[5] = target: FGFR3 (UniProt P22607); assay: as above
Chain of FGFR3 (P22607 whole entry, looked up): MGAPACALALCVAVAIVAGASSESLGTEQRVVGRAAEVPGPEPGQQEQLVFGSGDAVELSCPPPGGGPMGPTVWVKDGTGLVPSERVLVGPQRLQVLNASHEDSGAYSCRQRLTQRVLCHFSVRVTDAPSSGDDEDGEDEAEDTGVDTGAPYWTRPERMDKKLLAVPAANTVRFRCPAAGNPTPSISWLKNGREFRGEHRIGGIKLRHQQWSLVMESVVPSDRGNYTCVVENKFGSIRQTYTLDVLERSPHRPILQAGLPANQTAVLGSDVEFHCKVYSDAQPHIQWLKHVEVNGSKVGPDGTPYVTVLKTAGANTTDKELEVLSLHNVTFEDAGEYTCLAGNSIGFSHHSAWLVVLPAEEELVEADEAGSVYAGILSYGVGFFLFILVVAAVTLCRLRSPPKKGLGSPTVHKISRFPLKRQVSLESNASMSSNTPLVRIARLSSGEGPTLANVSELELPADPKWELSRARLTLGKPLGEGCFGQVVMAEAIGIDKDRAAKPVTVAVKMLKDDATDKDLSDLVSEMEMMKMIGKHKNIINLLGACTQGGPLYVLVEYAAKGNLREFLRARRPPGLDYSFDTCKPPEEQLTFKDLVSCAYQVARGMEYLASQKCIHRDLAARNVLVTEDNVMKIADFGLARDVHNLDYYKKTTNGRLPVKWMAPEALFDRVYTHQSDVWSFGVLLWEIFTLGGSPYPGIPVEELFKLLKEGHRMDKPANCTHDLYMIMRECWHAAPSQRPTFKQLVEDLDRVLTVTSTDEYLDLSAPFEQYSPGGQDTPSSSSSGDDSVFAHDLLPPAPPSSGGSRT

[6] = test system: Fer (mouse); assay: as above
[7] = target: Fes (UniProt P07332); assay: as above
Chain of Fes (P07332 whole entry, looked up): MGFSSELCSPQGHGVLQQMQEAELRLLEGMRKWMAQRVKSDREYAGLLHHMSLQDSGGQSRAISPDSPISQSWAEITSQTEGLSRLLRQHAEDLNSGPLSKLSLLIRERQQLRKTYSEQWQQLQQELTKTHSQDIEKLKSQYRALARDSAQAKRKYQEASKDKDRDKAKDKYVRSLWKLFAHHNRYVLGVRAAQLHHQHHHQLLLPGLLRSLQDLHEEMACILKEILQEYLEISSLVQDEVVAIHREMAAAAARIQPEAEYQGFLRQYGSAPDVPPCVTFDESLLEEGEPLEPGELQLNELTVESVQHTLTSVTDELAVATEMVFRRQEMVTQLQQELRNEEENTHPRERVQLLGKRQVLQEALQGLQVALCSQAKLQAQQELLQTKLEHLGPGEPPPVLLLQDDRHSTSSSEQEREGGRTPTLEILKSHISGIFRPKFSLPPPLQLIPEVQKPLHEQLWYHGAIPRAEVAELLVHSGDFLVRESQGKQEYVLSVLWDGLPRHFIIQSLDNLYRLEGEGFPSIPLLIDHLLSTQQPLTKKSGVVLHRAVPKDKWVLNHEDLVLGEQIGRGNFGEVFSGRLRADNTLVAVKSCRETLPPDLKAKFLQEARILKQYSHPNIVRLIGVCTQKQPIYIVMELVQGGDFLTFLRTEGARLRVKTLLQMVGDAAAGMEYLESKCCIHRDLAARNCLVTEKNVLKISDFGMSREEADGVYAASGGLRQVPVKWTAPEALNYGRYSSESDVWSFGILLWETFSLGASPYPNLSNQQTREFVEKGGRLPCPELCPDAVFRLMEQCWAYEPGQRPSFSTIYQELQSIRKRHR

[8] = target: Fyn (UniProt P06241); assay: as above
Chain of Fyn (P06241 whole entry, looked up): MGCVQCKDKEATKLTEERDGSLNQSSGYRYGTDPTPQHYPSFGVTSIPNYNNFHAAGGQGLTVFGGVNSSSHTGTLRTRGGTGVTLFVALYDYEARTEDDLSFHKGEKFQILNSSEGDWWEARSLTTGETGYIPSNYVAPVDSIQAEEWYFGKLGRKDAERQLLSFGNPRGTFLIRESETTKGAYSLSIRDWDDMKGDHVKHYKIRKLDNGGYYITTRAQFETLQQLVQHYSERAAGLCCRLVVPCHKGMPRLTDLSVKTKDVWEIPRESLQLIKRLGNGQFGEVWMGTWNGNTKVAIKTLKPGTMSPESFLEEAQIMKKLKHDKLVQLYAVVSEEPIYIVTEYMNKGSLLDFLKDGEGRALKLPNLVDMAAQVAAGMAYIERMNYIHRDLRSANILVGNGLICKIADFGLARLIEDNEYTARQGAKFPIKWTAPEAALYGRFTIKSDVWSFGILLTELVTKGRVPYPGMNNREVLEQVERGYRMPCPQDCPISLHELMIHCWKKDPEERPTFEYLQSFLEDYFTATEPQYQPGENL

[9] = target: Hck (UniProt P08631); assay: as above
Chain of Hck (P08631 whole entry, looked up): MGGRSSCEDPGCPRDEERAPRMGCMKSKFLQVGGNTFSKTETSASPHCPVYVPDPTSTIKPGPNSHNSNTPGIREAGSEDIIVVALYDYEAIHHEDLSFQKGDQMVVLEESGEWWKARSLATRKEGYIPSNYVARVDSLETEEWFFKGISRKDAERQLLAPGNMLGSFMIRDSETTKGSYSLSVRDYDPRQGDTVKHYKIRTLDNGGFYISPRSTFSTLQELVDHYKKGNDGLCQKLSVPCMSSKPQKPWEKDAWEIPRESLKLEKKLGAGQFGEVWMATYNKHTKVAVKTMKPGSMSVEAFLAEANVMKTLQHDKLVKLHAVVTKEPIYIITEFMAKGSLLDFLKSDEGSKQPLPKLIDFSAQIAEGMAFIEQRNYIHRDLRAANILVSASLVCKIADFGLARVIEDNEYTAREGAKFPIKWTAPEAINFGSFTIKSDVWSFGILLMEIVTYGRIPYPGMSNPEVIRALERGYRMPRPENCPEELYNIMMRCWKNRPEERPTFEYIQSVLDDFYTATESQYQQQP

[10] = target: Jak2 (UniProt O60674); assay: as above
[11] = target: MERTK (UniProt Q12866); assay: as above
Chain of MERTK (Q12866 whole entry, looked up): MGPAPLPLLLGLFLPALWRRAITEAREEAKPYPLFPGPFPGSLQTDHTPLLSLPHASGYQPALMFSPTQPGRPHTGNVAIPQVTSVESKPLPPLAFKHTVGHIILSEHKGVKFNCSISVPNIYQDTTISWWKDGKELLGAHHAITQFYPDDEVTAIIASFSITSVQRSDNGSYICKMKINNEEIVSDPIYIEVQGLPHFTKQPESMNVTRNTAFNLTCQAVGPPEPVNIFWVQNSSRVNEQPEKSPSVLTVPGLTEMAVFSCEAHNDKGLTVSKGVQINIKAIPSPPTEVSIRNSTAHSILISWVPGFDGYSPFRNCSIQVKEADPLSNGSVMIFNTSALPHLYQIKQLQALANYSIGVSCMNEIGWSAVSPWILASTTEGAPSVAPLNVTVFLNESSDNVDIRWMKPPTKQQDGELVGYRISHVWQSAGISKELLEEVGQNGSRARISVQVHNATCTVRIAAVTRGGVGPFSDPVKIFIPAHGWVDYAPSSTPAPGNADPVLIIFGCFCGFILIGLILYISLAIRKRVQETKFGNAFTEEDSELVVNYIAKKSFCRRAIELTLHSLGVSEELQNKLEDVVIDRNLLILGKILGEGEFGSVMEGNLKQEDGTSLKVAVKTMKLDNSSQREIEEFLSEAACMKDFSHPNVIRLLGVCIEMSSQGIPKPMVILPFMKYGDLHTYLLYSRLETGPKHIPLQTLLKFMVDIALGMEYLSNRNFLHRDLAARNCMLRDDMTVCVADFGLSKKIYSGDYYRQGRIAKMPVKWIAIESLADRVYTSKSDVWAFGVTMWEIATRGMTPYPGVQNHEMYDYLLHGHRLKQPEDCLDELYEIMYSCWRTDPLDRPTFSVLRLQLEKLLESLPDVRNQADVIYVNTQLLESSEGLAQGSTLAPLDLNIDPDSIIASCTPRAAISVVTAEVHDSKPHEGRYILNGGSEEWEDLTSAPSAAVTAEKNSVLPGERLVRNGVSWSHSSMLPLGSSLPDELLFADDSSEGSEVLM

[12] = test system: c-Abl (mouse); assay: as above
[13] = test system: c-Src; assay: as above
[14] = target: Grb2 SH2 (UniProt P62993); assay: SH2 binding enrichment of the phosphorylated peptide, bacterial display (enrichment ratio); higher = better substrate or ligand; peptides without Tyr show the background
Chain of Grb2 SH2 (P62993 whole entry, looked up): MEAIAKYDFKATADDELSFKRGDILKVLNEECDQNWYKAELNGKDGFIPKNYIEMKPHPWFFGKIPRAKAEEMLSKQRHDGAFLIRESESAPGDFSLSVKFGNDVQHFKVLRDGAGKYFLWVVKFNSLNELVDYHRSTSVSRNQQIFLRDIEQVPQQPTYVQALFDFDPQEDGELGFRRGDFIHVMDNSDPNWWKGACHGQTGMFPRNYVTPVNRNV

[15] = target: SHP2-C SH2; assay: as above
[16] = target: c-Src SH2; assay: as above
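For SH2 binding enrichment of the phosphorylated peptide, bacterial display in this document: peptide library displayed on the E. coli surface as eCPX fusions, selected cells deep-sequenced, score is each peptide's frequency after selection divided by its frequency in the input.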
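For phosphorylation enrichment, bacterial display in this document: 11-residue human phosphosite peptides and single-mutation variants displayed on the E. coli surface, counted by deep sequencing, each peptide's frequency after selection divided by its frequency in the unselected input library; frequency after pTyr selection over input frequency; kinase dosed for 20-30% of maximal phosphorylation in three min.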

Chain of EPHB1 (P54762 whole entry, looked up): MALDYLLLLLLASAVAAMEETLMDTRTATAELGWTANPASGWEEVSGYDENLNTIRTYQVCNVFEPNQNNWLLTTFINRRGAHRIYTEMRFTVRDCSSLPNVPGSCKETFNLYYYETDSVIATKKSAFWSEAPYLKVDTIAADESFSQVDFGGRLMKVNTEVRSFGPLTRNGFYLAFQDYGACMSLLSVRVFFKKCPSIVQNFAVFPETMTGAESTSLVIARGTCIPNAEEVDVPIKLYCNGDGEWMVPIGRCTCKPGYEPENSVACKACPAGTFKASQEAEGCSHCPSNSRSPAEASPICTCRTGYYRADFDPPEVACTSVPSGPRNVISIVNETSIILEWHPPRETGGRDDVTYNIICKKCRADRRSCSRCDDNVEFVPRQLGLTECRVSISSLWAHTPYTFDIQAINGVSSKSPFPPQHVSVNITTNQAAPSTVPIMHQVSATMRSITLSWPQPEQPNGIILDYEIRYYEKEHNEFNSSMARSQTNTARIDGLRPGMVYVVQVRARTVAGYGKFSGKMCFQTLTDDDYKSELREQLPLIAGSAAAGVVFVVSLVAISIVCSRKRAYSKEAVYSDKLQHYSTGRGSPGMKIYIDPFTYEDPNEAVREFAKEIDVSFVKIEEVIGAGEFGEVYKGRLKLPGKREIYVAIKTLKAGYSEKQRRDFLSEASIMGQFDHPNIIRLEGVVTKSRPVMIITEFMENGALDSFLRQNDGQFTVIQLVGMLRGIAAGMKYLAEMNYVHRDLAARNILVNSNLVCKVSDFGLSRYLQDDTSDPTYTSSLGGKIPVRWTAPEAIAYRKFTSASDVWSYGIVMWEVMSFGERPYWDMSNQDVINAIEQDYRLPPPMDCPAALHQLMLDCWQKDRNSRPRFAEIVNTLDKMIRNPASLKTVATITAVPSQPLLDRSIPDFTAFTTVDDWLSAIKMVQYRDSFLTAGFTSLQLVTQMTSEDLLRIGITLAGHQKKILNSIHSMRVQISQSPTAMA

Sequence	phosphorylation enrichment [1]	phosphorylation enrichment [2]	phosphorylation enrichment [3]	phosphorylation enrichment [4]	phosphorylation enrichment [5]	phosphorylation enrichment [6]	phosphorylation enrichment [7]	phosphorylation enrichment [8]	phosphorylation enrichment [9]	phosphorylation enrichment [10]	phosphorylation enrichment [11]	phosphorylation enrichment [12]	phosphorylation enrichment [13]	SH2 binding enrichment [14]	SH2 binding enrichment [15]	SH2 binding enrichment [16]
FGMQLYQKFMH [GRB14_Y347_N349K_YF]	0.863	1.39	0.8	0.454	0.784	1.92	1	1.56	2.16	0.94	2.11	0.773	2.26	1.23	1.02	1.08
FGSIMYEFVGK [SLC18A1_Y251_V249I]	1.12	1.73	1.04	0.658	0.652	9.41	0.983	1.09	5.05	0.703	6.29	0.508	1.44	0.867	0.731	0.676
FGSLLYKYAFK [FANCD2_Y458]	0.839	0.468	0.391	0.352	0.684	0.324	1.04	0.366	0.379	0.858	0.433	0.627	0.392	0.922	0.731	0.485
FHKALYTVRSF [PDE6C_Y266_YF]	0.708	0.612	0.489	0.462	0.549	0.394	0.942	0.43	0.557	0.674	0.378	0.666	0.389	0.784	0.648	0.459
FISVGYVDGTQ [HLA-B_Y51_D54G]	0.741	0.268	0.401	0.353	0.587	0.358	0.807	0.315	0.375	0.696	0.348	0.572	0.398	0.781	0.753	0.527
FLGRNYLETLM [DUS3L_Y610_D609N_YF]	0.679	0.515	0.412	0.448	0.567	0.433	0.701	0.454	0.33	0.63	0.322	0.522	0.292	1.02	1.09	0.605
FLNSIYQSRDE [ROS1_Y2227_K2228Q]	0.743	0.533	0.441	0.353	0.785	0.548	0.764	4.07	4.33	0.791	0.489	0.775	4.63	0.789	0.74	0.361
FLRTGYSIPFG [TGM1_Y370_V372I_YF]	0.844	0.538	0.471	0.486	0.769	0.409	0.934	0.473	0.423	0.863	0.753	0.775	0.44	1.06	1.62	5.52
FLTSSYINIST [IL23R_Y178_YF]	0.834	0.437	0.434	0.517	0.489	0.375	0.779	0.48	0.422	1.34	0.47	0.498	0.44	22.6	1.33	2.66
FMRGMYFRMKD [PLA2G6_Y541_YF]	1.16	0.518	0.542	0.442	0.657	0.399	1.12	0.455	0.428	1.14	0.419	0.645	0.417	0.897	1.17	0.767
FPAVGYHKPHI [IDS_Y225_L221P]	0.638	0.393	0.467	0.412	0.565	0.436	0.601	0.472	0.394	0.625	0.374	0.602	0.41	0.823	0.826	0.91
FPKARYRWLVL [APTX_Y214_H215R_YF]	0.715	0.448	0.371	0.533	0.534	0.352	0.72	0.386	0.407	0.717	0.494	0.534	0.436	0.909	0.568	0.575
FPPTHYIRRVP [SLC4A11_Y820_YF]	0.953	0.529	0.53	0.437	0.468	0.747	0.87	0.473	0.965	0.755	0.522	0.71	0.475	0.644	0.746	0.374
FQEPVYSVAFS [TBL1X_Y509_H504Y_YF]	4.02	18.1	24.6	3.68	3.49	16.6	3.7	11.8	10.2	0.925	11.7	27.4	7.54	0.812	0.926	0.469
FQLPFYNTVPS [BMPR1A_Y458_M460T_YF]	0.748	0.526	0.45	0.414	0.699	0.642	0.828	0.465	0.687	0.704	0.569	0.625	0.565	0.911	0.816	5.8
FQSKHYACIRQ [TIMP3_Y182_YF]	0.692	0.541	0.478	0.42	0.512	0.472	0.829	0.375	0.392	0.823	0.503	0.659	0.425	1.01	6.08	1.79
FRARAYGFRGP [CHGA_Y381]	0.839	0.472	0.506	0.497	0.427	0.532	0.747	0.676	0.569	0.686	0.748	0.658	0.651	0.705	0.476	0.465

Sequence	phosphorylation enrichment [1]	phosphorylation enrichment [2]	phosphorylation enrichment [3]	phosphorylation enrichment [4]	phosphorylation enrichment [5]	phosphorylation enrichment [6]	phosphorylation enrichment [7]	phosphorylation enrichment [8]	phosphorylation enrichment [9]	phosphorylation enrichment [10]	phosphorylation enrichment [11]	phosphorylation enrichment [12]	phosphorylation enrichment [13]	SH2 binding enrichment [14]	SH2 binding enrichment [15]	SH2 binding enrichment [16]
FRARAYSFRGP [CHGA_Y381_G382S]	0.697	0.48	0.419	0.538	0.534	0.456	0.591	0.418	0.455	0.628	0.601	0.573	0.507	0.597	0.363	0.573
FRDALYKSMVD [PHEX_Y250_F252S_YF]	0.792	0.608	0.614	0.497	0.642	0.488	0.97	0.419	0.476	0.897	0.484	0.643	0.365	0.795	0.735	0.516
FRPPYYHRDCM [HGD_Y334_N337D]	0.805	0.536	0.611	0.56	0.735	0.499	0.867	0.417	0.415	0.723	0.444	0.572	0.455	1.08	0.913	1.09
FRQNVYIPGSN [PCDHGA1_Y895_YF]	0.576	0.43	0.442	0.416	0.501	0.402	0.613	0.447	0.442	0.584	0.416	0.536	0.435	0.804	0.602	0.425
FSAGTYPRMEE [SYCN_Y108_L111M]	0.863	0.453	0.467	1.12	0.547	0.417	0.65	0.361	0.322	0.575	0.365	0.501	0.407	0.869	0.691	1.08
FSALDYKIFFF [WDPCP_Y210_L205F_YF]	1.57	0.675	0.54	0.6	0.981	0.541	1.64	0.416	0.504	1.69	0.468	1.13	0.67	0.731	0.401	0.449
FSDQVYRQRRK [TH_Y230]	0.853	0.557	0.663	0.474	0.568	0.551	0.787	0.615	0.493	0.658	0.649	0.735	0.774	0.634	0.446	0.421
FSNVLYRPRGA [TMIGD2_Y197_YF]	0.695	0.415	0.526	0.388	0.43	0.479	0.845	0.437	0.41	0.478	0.418	0.611	0.477	0.647	0.638	0.416
FSQETYFRVSN [ABCD1_Y180_Q178E_YF]	1	1.08	0.706	1.64	1.23	0.45	1.1	0.592	0.868	3	0.74	0.661	1.51	0.481	0.544	0.466
FSTSPYLLEAA [BRIP1_Y921_YF]	0.782	0.488	0.494	0.408	0.667	0.475	0.962	3.49	0.557	0.724	0.437	0.458	1.57	0.954	1.17	0.577
FTAVGYHKHIT [NOMO1_Y1137]	0.649	0.382	0.414	0.485	0.614	0.48	0.685	0.432	0.482	0.524	0.33	0.569	0.312	1.02	1.62	0.849
FVHDNYVIRRT [CPS1_Y1450]	0.772	0.376	0.499	0.4	0.467	0.435	0.739	0.446	0.489	0.714	0.391	0.418	0.536	0.655	0.517	0.416
FVTSMYNEILI [TRPV1_Y310_M315I]	1.16	0.684	0.714	0.733	0.903	6.66	1.32	0.682	1.14	1.01	1.17	0.686	0.621	0.929	1.09	4.5
GAALAYGLDKS [HSPA9_Y230_A225G]	0.529	0.337	0.515	0.389	0.474	0.411	0.637	0.483	0.402	0.493	0.306	0.487	0.415	0.786	0.696	0.488
GDFLSYREFHL [ERBIN_Y1107_S1112L_YF]	0.915	0.599	0.527	0.501	0.792	0.737	0.956	0.467	0.653	0.824	0.423	0.805	0.543	0.786	0.845	0.556
GDKKAYVRLAP [RPL23A_Y137_E133D]	0.603	0.523	0.435	0.535	0.497	0.411	0.58	0.43	0.482	0.732	0.638	0.519	0.449	0.831	0.757	0.54
